# Measurements as given in US20140112915A1 (Novartis, published 2014).
# Positions count from the first letter of the chain named.
# T1: IL-18/IL-18BP complex (human, UniProt O95998 31-194, biotinylated in the first ELISA setup, unbiotinylated in the second)
# T1 construct: also called biotinylated IL-18/IL18-BP complex; not shown: human IgG1 Fc tag
# T1 sequence 1: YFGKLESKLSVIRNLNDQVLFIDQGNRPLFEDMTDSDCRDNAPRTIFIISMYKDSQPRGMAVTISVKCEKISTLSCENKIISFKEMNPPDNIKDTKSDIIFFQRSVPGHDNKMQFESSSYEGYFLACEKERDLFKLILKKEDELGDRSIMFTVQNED
# T1 sequence 2: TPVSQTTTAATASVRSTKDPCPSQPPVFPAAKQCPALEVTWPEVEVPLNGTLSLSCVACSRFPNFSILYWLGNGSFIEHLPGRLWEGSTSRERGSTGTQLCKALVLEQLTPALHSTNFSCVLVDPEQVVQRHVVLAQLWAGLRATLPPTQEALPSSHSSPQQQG
# T2: Recombinant cynomolgus IL-18 (cynomolgus monkey, UniProt Q14116 37-193 (human entry))
# T2 construct: also called cm IL-18; Cyno IL-18
# T2 chain: T1 sequence 1 with V11I, S50N, T63A, K79R, F134Y, E141K
# T3: Native human IL-18 (human, UniProt Q14116 37-193)
# T3 sequence: T1 sequence 1
# T4: Recombinant human IL-18 (human, UniProt Q14116 37-193)
# T4 sequence: T1 sequence 1
# B1: MOR09465 (antibody, human IgG1, lambda, L234A L235A, V domains shown)
# VH: EVQLVQSGAEVKKPGSSVKVSCKASGGTFNSYAISWVRQAPGQGLEWMGNIIPHYGFAYYAQKFQGRVTITADESTSTAYMELSSLRSEDTAVYYCARAAYHPLVFDNWGQGTLVTVSS
# VL: DIVLTQPPSVSGAPGQRVTISCSGSSSNIGNHYVNWYQQLPGTAPKLLIYRNNHRPSGVPDRFSGSKSGTSASLAITGLQSEDEADYYCQSWDYSGFSTVFGGGTKLTVLG
# notes: also called MOR9465
# B2: MOR09464 (antibody, human IgG1, lambda, L234A L235A, V domains shown)
# VH: B1 VH with H54M, Y55T, F57Q, A58T
# VL: B1 VL
# notes: also called MOR9464
# B3: MOR09441 (antibody, human IgG1, lambda, L234A L235A, V domains shown)
# VH: EVQLVQSGAEVKKPGSSVKVSCKASGGTFNSYAISWVRQAPGQGLEWMGWINPFYIGETFYAQKFQGRVTITADESTSTAYMELSSLRSEDTAVYYCARAAYHPLVFDNWGQGTLVTVSS
# VL: B1 VL
# notes: also called MOR9441
# B4: MOR09466 (antibody, human IgG1, lambda, L234A L235A, V domains shown)
# VH: B1 VH with H54Y, Y55S
# VL: B1 VL
# notes: also called MOR9466
# B5: MOR10222_E1Q_N30S_M54I (antibody, human IgG1, lambda, L234A L235A, V domains shown)
# VH: B1 VH with E1Q, N30S, H54I, Y55T, F57Q, A58T
# VL: B1 VL with D1Q, I2S, V10A, A13T, T77S
# B6: MOR13363 (antibody, human IgG1, kappa, L234A L235A, V domains shown)
# VH: QVQLLESGGGLVQPGGSLRLSCAASGFTFSSYAIHWVRQAPGKGLEWVSVISGEGSNTYYADSVKGRFTISRDNSKNTLYLQMNSLRAEDTAVYYCARVMIGYGFDYWGQGTLVTVSS
# VL: DIQMTQSPSSLSASVGDRVTITCRASQSIFNYLNWYQQKPGKAPKLLIYDSSTLQSGVPSRFSGSGSGTDFTLTISSLQPEDFATYYCLQYSGFLFTFGQGTKVEIKR
# B7: MOR13341 (antibody, human IgG1, kappa, L234A L235A, V domains shown)
# VH: QVQLVQSGAEVKKPGSSVKVSCKASGGTFSTFSISWVRQAPGQGLEWMGGIIPIFGTANYAQKFQGRVTITADESTSTAYMELSSLRSEDTAVYYCARGGYGGYYYFDYWGQGTLVTVSS
# VL: B6 VL with F30S, Y32R, D50K, S51G, L89Q, Y91H, S92K, G93V, F94W, F96T
# B8: MOR13361 (antibody, human IgG1, kappa, L234A L235A, V domains shown)
# VH: B6 VH with V50T, S52Q, G53S, E54S, S56E, T58K, Y59F
# VL: B6 VL with L89H, F94L
# B9: MOR10501 (antibody, human IgG1, lambda, L234A L235A, V domains shown)
# VH: EVQLQESGPGLVKPGETLSLTCTVSGGSISTGSYYWNWIRQAPGKGLEWIGEIWHSGPTFYNPSLKSRVTISVDTSKNQFSLKLSSVTAADTAVYYCARTTRYWMSHILAYGMDYWGQGTLVTVSS
# VL: DIVLTQPPSVSGAPGQRVTISCSGSSSNIGNHYVSWYQQLPGTAPKLLIYANTKRPSGVPDRFSGSKSGTSASLAITGLQSEDEADYYCSSYDGSQSIVFGGGTKLTVLG
# notes: also called MOR010501
# B10: MOR10497 (antibody, human IgG1, lambda, L234A L235A, V domains shown)
# VH: B9 VH with W54Q, H55S, S56P, P58Y
# VL: B9 VL
# notes: also called MOR010497
# B11: MOR10502 (antibody, human IgG1, lambda, L234A L235A, V domains shown)
# VH: B9 VH with W54H, H55G, S56H, P58F
# VL: B9 VL
# notes: also called MOR010502
# Target: T1, IL-18/IL-18BP complex
# Assay: ELISA, second set-up: unbiotinylated human IL-18/rhIL-18BP-Fc complex captured on Maxisorp plate through the Fc tag by goat anti-human IgG Fc, antibody titrated, AttoPhos fluorescence [B]
# Method: Plates were washed 5× with TBST, 20 μl AttoPhos (Roche) solution (1:5 diluted in ddH2O) were added and fluorescence was measured at the Tecan Reader.
# In a second setup, the experiment was done in a similar way, except for using unbiotinylated hu IL-18.
row,Binder,binding result
1,B1,no binding (tested: about 400 nM)
2,B2,no binding (tested: about 400 nM)
3,B3,no binding (tested: about 400 nM)
4,B4,no binding (tested: about 400 nM)

# Target: T2, Recombinant cynomolgus IL-18
# Assay: solution equilibrium titration (SET), ECL detection; value in brackets = cynomolgus IL-18; bracketed value
# Method: (§1) Goat-anti-human (Fab)₂ fragment specific antibodies (Dianova) were labeled with MSD SULFO-TAG™ NHS-Ester (Meso Scale Discovery, Gaithersburg, Md., USA) according to the manufacturer's instructions. Experiments were carried out in polypropylene microtiter plates and phosphate-based assay buffer. Unlabeled human IL-18 was serially diluted, starting with a concentration at least 10 times higher than the expected KD. Wells without antigen were used to determine Bₘₐₓ values; wells with assay buffer were used to determine background. After addition of a constant amount of antibodies or fragment thereof (e.g. 10 pM final concentration in 60 μl final volume), the mixture was incubated over night at RT.
# (§2) Streptavidin MSD plates were blocked with BSA-containing phosphate buffer over night. After blocking of the plate, biotinylated human IL-18 was added and incubated for 1 h at RT. Subsequently the equilibrated samples were transferred to those plates and incubated for a short time at RT. After washing, MSD SULFO-TAG labeled detection antibody (goat anti-human (Fab)₂) was added to the MSD plate and incubated for a short time at RT.
# (§3) Where IL-18 from cynomolgus monkey (cm IL-18) was also tested, the resulting KD are indicated in brackets.
row,Binder,Kd
1,B5,0.03 nM
2,B6,0.01 nM
3,B7,0.03 nM
4,B8,0.006 nM

# Target: T3, Native human IL-18
# Assay: cell-based or functional assay
row,Binder,"IC50, inhibition of IFN-γ release, PBMC, Native IL-18 (LPS/IL-12)"
1,B5,0.05 nM

# Target: T4, Recombinant human IL-18
# Assay: cell-based or functional assay
row,Binder,"IC50, inhibition of IFN-γ release, KG-1 cells, Hu IL-18 (1 nM)"
1,B5,4.2 nM

# Target: T4, Recombinant human IL-18
# Assay: solution equilibrium titration (SET), ECL detection; human IL-18; unbracketed value, column Hu IL-18
# Method: as §1, §2, §3
row,Binder,Kd
1,B5,3 pM
2,B6,10 pM
3,B7,3 pM
4,B8,7 pM

# Target: T4, Recombinant human IL-18
# Assay: solution equilibrium titration (SET), ECL detection
# Method: as §1, §2, §3
row,Binder,Kd
1,B1,6 pM
2,B2,3 pM
3,B3,1 pM
4,B4,5 pM
5,B9,1 pM
6,B10,2 pM
7,B11,4 pM

# Target: T3, Native human IL-18
# Assay: cell-based or functional assay
# Remark: another data set of the same source
row,Binder,"IC50, inhibition of IFN-γ release, human whole blood, LPS/IL-12 (native IL-18)"
1,B1,19.4 nM
2,B2,9.8 nM
3,B3,16.3 nM
4,B5,9.3 nM
5,B4,18.5 nM
6,B6,91.7 nM
7,B7,19.6 nM
8,B8,39.4 nM
9,B9,101 nM
10,B10,108 nM
11,B11,110 nM

# Target: T4, Recombinant human IL-18
# Assay: cell-based or functional assay
# Remark: another data set of the same source
row,Binder,"IC50, inhibition of IFN-γ release, human whole blood, recombinant human IL-18 (7 nM)"
1,B1,4.2 nM
2,B2,3.6 nM
3,B3,8 nM
4,B5,47.3 nM
5,B4,5.6 nM
6,B6,29.4 nM
7,B7,5.6 nM
8,B8,15.7 nM
9,B9,20.3 nM
10,B10,16.1 nM
11,B11,17.9 nM

# Target: T2, Recombinant cynomolgus IL-18
# Assay: cell-based or functional assay
row,Binder,"IC50, inhibition of IFN-γ production, cynomolgus whole blood, recombinant cynomolgus IL-18 (7 nM)"
1,B1,55 nM
2,B2,51 nM
3,B3,110 nM
4,B4,179 nM

# Target: T3, Native human IL-18
# Assay: cell-based or functional assay
# Remark: another data set of the same source
row,Binder,"IC50, inhibition of IFN-γ release, PBMC, Native IL-18 (LPS/IL-12)"
1,B1,0.89 nM
2,B2,0.2 nM
3,B3,0.45 nM
4,B5,0.05 nM
5,B4,2.1 nM
6,B6,0.18 nM
7,B7,0.8 nM
8,B8,0.5 nM
9,B9,1.3 nM
10,B10,1.8 nM
11,B11,2.3 nM

# Target: T2, Recombinant cynomolgus IL-18
# Assay: cell-based or functional assay
# Remark: another data set of the same source
Binder,"IC50, inhibition of IFN-γ release, KG-1 cells, Cyno IL-18","IC50, inhibition of IFN-γ release, KG-1 cells, Cyno IL-18 (0.2 nM)"
B1,1.8 nM,–
B2,8.3 nM,–
B3,16.4 nM,–
B5,8.12 nM,–
B4,5.6 nM,–
B6,–,0.28 nM
B7,–,2.8 nM
B8,–,0.13 nM
B9,0.2 nM,–
B10,0.3 nM,–
B11,0.2 nM,–

# Target: T4, Recombinant human IL-18
# Assay: cell-based or functional assay
# Remark: another data set of the same source
Binder,"IC50, inhibition of IFN-γ release, KG-1 cells, Hu IL-18 (1 nM)","IC50, inhibition of IFN-γ release, PBMC, Hu IL-18 (recombinant)","IC50, inhibition of IFN-γ release, KG-1 cells, Hu IL-18 (0.5 nM)"
B1,0.3 nM,0.6 nM,–
B2,0.8 nM,1.3 nM,–
B3,0.6 nM,2.5 nM,–
B5,4.21 nM,–,–
B4,0.4 nM,1.2 nM,–
B6,–,–,0.49 nM
B7,–,–,0.13 nM
B8,–,–,0.41 nM
B9,0.3 nM,6.3 nM,–
B10,0.3 nM,5.8 nM,–
B11,0.4 nM,6.3 nM,–
